Experimental data from the supplement of paper PMC10567573.

B1: PBXIP1 (parent)
chain: LQQLRARLQGLEADCVRGPDGVCL

Variants of: B1
Assay: protein stability index of a GFP-peptide fusion (GPS, HEK-293T) (PSI 1-6); higher = more stable
Settings: c terminus: a fixed tail appended
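Also: lentivirally expressed fusions sorted by FACS into six bins by GFP to DsRed ratio, PSI derived from sequencing read proportions per bin multiplied by bin number.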

Variant	protein stability index
LQQLRARLQGIEADCVRGPDGVCL	1.93
LQQLRARLQGEEADCVRGPDGVCL	3.75
LQQLRARLQGHEADCVRGPDGVCL	2.41
LQQLRARLQGGEADCVRGPDGVCL	4.24
LQQLRARLQGWEADCVRGPDGVCL	2.78
LQQLRARLQGDEADCVRGPDGVCL	4.28
LQQLRARLQGKEADCVRGPDGVCL	3.69
LQQLRARLQGSEADCVRGPDGVCL	3.09
LQQLRARLQGMEADCVRGPDGVCL	2.75
LQQLRARLQGTEADCVRGPDGVCL	3.01
LQQLRARLQGAEADCVRGPDGVCL	2.46
LQQLRARLQGNEADCVRGPDGVCL	3.09
LQQLRARLQGYEADCVRGPDGVCL	2.75
LQQLRARLQGFEADCVRGPDGVCL	2.25
LQQLRARLQGPEADCVRGPDGVCL	2.07
LQQLRARLQGREADCVRGPDGVCL	2.88
LQQLRARLQGQEADCVRGPDGVCL	3.97
LQQLRARLQGLEADCVRGPDWVCL	2.07
LQQLRARLQGLEADCVRGPDIVCL	1.75
LQQLRARLQGLEADCVRGPDQVCL	3.34
LQQLRARLQGLEADCVRGPDTVCL	1.99
LQQLRARLQGLEADCVRGPDAVCL	1.28
LQQLRARLQGLEADCVRGPDSVCL	3.94
LQQLRARLQGLEADCVRGPDYVCL	1.28

Variant	protein stability index
LQQLRARLQGLEADCVRGPDRVCL	2.56
LQQLRARLQGLEADCVRGPDKVCL	3.18
LQQLRARLQGLEADCVRGPDNVCL	2.69
LQQLRARLQGLEADCVTGPDGVCL	3.19
LQQLRARLQGLEADCVFGPDGVCL	2.12
LQQLRARLQGLEADCVYGPDGVCL	2.47
LQQLRARLQGLEADCVNGPDGVCL	3.03
LQQLRARLQGLEADCVLGPDGVCL	1.98
LQQLRARLQGLEADCVGGPDGVCL	2.55
LQQLRARLQGLEADCVPGPDGVCL	3.52
LQQLRARLQGLEADCVQGPDGVCL	3.04
LQQLRARLQGLEADCVCGPDGVCL	2.04
LQQLRARLQGLEADCVVGPDGVCL	2.2
LQQLRARLQGLEADCVIGPDGVCL	1.82
LQQLRARLQGLEADCVEGPDGVCL	1.86
LQQLRARLQGLEADCVMGPDGVCL	1.79
LQQLRARLQGLEADCVWGPDGVCL	1.81
LQQLRARLQGLEADCVKGPDGVCL	1.86
LQQLRARLQGLEADCVHGPDGVCL	2.93
LQQLRARLQGLEADCSRGPDGVCL	1.84
LQQLRARLQGLEADCNRGPDGVCL	2.62
LQQLRARLQGLEADCPRGPDGVCL	1.64
LQQLRARLQGLEADCFRGPDGVCL	2.28
LQQLRARLQGLEADCQRGPDGVCL	2.95

Variant	protein stability index
LQQLRARLQGLEADCERGPDGVCL	3.21
LQQLRARLQGLEADCIRGPDGVCL	2.38
LQQLRARLQGLEADCDRGPDGVCL	2.87
LQQLRARLQGLEADCCRGPDGVCL	1.78
LQQLRARLQGLEADCMRGPDGVCL	1.81
LQQLRARLQGLEADCTRGPDGVCL	2.51
LQQLRARLQGLEADCHRGPDGVCL	1.74
LQQLRARLQGLEADCLRGPDGVCL	1.59
LQQLRARLQGLEADCWRGPDGVCL	1.46
LQQLRARLQGLEADCYRGPDGVCL	2.57
LQQLRARLQDLEADCVRGPDGVCL	2.35
LQQLRARLQMLEADCVRGPDGVCL	2.02
LQQLRARLQILEADCVRGPDGVCL	1.65
LQQLRARLQQLEADCVRGPDGVCL	2.53
LQQLRARLQWLEADCVRGPDGVCL	2.15
LQQLRARLQALEADCVRGPDGVCL	1.24
LQQLRARLQELEADCVRGPDGVCL	2.64
LQQLRARLQGLEADQVRGPDGVCL	1.99
LQQLRARLQGLEADDVRGPDGVCL	2.65
LQQLRARLQGLEADSVRGPDGVCL	2.16
LQQLRARLQGLEADLVRGPDGVCL	2.5
LQQLRARLQGLEADYVRGPDGVCL	2.13
LQQLRARLQGLEADWVRGPDGVCL	2
LQQLRARLQGLEADKVRGPDGVCL	2.29

Variant	protein stability index
LQQLRARLQGLEADTVRGPDGVCL	2.18
LQQLRARLQGLEADGVRGPDGVCL	1.96
LQQLRARLQGLEADHVRGPDGVCL	1.81
LQQLRARLQGLEADIVRGPDGVCL	1.87
LQQLRARLQGLEADNVRGPDGVCL	1.95
LQQLRARLQGLEADAVRGPDGVCL	2.6
LQQLRARKQGLEADCVRGPDGVCL	3.57
LQQLRARMQGLEADCVRGPDGVCL	2.05
LQQLRARPQGLEADCVRGPDGVCL	3.56
LQQLRARNQGLEADCVRGPDGVCL	3.94
LQQLRARWQGLEADCVRGPDGVCL	2.24
LQQLRARTQGLEADCVRGPDGVCL	3.43
LQQLRARQQGLEADCVRGPDGVCL	3.36
LQQLRARVQGLEADCVRGPDGVCL	1.99
LQQLRARLQGLEADCVRGPDGTCL	2.57
LQQLRARLQGLEADCVRGPDGICL	1.96
LQQLRARLQGLEADCVRGPDGACL	2.03
LQQLRARLQGLEADCVRGPDGMCL	2.13
LQQLRARLQGLEADCVRGPDGKCL	2.39
LQQLRARLQGLEADCVRGPDGLCL	1.46
LQQLRARLQGLEADCVRGPDGGCL	1.78
LQQLRARLQGLEADCVRGPDGQCL	2.83
LQQLRARLQGLEADCVRGPDGFCL	1.34
LQQLRARLQGLEADCVRGPDGRCL	3.41

Variant	protein stability index
LQQLRARLQGLEADCVRGPDGSCL	3.23
LQQLRARLQGLEADCVRGPDGCCL	1.84
LQQLRARLQGLEADCVRGPDGYCL	1.52
LQQLRARLQGLEIDCVRGPDGVCL	1.34
LQQLRARLQGLEGDCVRGPDGVCL	1.87
LQQLRARLQGLEEDCVRGPDGVCL	2.97
LQQLRARLQGLECDCVRGPDGVCL	2.08
LQQLRARLQGLEWDCVRGPDGVCL	1.01
LQQLRARLQGLEKDCVRGPDGVCL	2.52
LQQLRARLQGLEQDCVRGPDGVCL	3.12
LQQLRARLQGLELDCVRGPDGVCL	1.45
LQQLRARLQGLEMDCVRGPDGVCL	2.79
LQQLRARLQGLEYDCVRGPDGVCL	2.01
LQQLRARLQGLEHDCVRGPDGVCL	1.68
LQQLRARLQGLESDCVRGPDGVCL	2.29
LQQLRARLQGLENDCVRGPDGVCL	2.56
LQQLRARLQGLEVDCVRGPDGVCL	2.35
LQQLRARLQGLEADCVRAPDGVCL	2.97
LQQLRARLQGLEADCVRHPDGVCL	2.39
LQQLRARLQGLEADCVRWPDGVCL	2.54
LQQLRARLQGLEADCVRCPDGVCL	2.23
LQQLRARLQGLEADCVRMPDGVCL	2.32
LQQLRARLQGLEADCVRKPDGVCL	2.27
LQQLRARLQGLEADCVRVPDGVCL	3.65

Variant	protein stability index
LQQLRARLQGLEADCVRPPDGVCL	1.78
LQQLRARLQGLEADCVRYPDGVCL	1.93
LQQLRARLQGLEADCVRQPDGVCL	2.9
LQQLRARLQGLEADCVRFPDGVCL	1.47
LQQLRARLQGLEADCVRIPDGVCL	1.87
LQQLRARLQGLEADCVRDPDGVCL	3.74
LQQLRARLDGLEADCVRGPDGVCL	2.86
LQQLRARLAGLEADCVRGPDGVCL	1.43
LQQLRARLGGLEADCVRGPDGVCL	2.28
LQQLRARLEGLEADCVRGPDGVCL	1.6
LQQLRARLWGLEADCVRGPDGVCL	1.86
LQQLRARLCGLEADCVRGPDGVCL	3.05
LQQLRARLTGLEADCVRGPDGVCL	1.04
LQQLRARLPGLEADCVRGPDGVCL	2.8
LQQLRARLHGLEADCVRGPDGVCL	2.42
LQQLRARLSGLEADCVRGPDGVCL	1.37
LQQLRARLRGLEADCVRGPDGVCL	1.17
LQQLRARLKGLEADCVRGPDGVCL	1.87
LQQLRARLQGLYADCVRGPDGVCL	2.73
LQQLRARLQGLDADCVRGPDGVCL	2.23
LQQLRARLQGLVADCVRGPDGVCL	2.79
LQQLRARLQGLHADCVRGPDGVCL	1.35
LQQLRARLQGLQADCVRGPDGVCL	2.26
LQQLRARLQGLPADCVRGPDGVCL	1.8

Variant	protein stability index
LQQLRARLQGLTADCVRGPDGVCL	2.02
LQQLRARLQGLEADCVRGPQGVCL	3.03
LQQLRARLQGLEADCVRGPGGVCL	2.45
LQQLRARLQGLEADCVRGPWGVCL	1.84
LQQLRARLQGLEADCVRGPIGVCL	1.9
LQQLRARLQGLEADCVRGPEGVCL	1.89
LQQLRARLQGLEADCVRGPYGVCL	1.26
LQQLRARLQGLEADCVRGPMGVCL	1.53
LQQLRARLQGLEADCVRGPTGVCL	2.12
LQQLRARLQGLEADCVRGPRGVCL	2.54
LQQLRARLQGLEADCVRGPKGVCL	2.08
LQQLRARLQGLEADCVRGPAGVCL	2.03
LQQLRARLQGLEADCVRGPVGVCL	1.8
LQQLRARLQGLEADCVRGPHGVCL	1.6
LQQLRARLQGLEADCVRGPPGVCL	1.5
LQQLRARLQGLEADCVRGPDGVHL	2.66
LQQLRARLQGLEADCVRGPDGVAL	2.2
LQQLRARLQGLEADCVRGPDGVIL	2.78
LQQLRARLQGLEADCVRGPDGVEL	2.98
LQQLRARLQGLEADCVRGPDGVKL	2.03
LQQLRARLQGLEADCVRGPDGVLL	2.48
LQQLRARLQGLEADCVRGPDGVML	2.23
LQQLRARLQGLEADCVRGVDGVCL	2.65
LQQLRARLQGLEADCVRGTDGVCL	2.12

Variant	protein stability index
LQQLRARLQGLEADCVRGKDGVCL	1.98
LQQLRARLQGLEADCVRGYDGVCL	2.13
LQQLRARLQGLEADCVRGDDGVCL	2.23
LQQLRARLQGLEADCVRGFDGVCL	1.92
LQQLRARLQGLEADCVRGWDGVCL	1.5
LQQLRARLQGLEADCVRGNDGVCL	1
LQQLRARLQGLEADCVRGHDGVCL	2.62
LQQLRARLQGLEADCVRGSDGVCL	1
LQQLRARLQGLEADCVRGIDGVCL	2.58
LQQLRARLQGLEADCVRGRDGVCL	1.41
LQQLRARLQGLEARCVRGPDGVCL	2.93
LQQLRARLQGLEAICVRGPDGVCL	2.73
LQQLRARLQGLEAECVRGPDGVCL	2.24
LQQLRARLQGLEAMCVRGPDGVCL	3.39
LQQLRARLQGLEAYCVRGPDGVCL	1.14
LQQLRARLQGLEANCVRGPDGVCL	1.75
LQQLRARLQGLEAQCVRGPDGVCL	2.21
LQQLRARLQGLEAGCVRGPDGVCL	1.15
LQQLRARLQGLEAPCVRGPDGVCL	2.1
LQQLRARLQGLEAWCVRGPDGVCL	1.32
